Results reported in patent US20250340635A1 (HEFEI TG IMMUNOPHARMA, published 2025).

Tests used:
[1] = target: T1, NKp46 on human peripheral blood mononuclear cells (human, UniProt O76036 22-304); test: flow cytometry on human PBMCs
T1 construct: also called human PBMCs
Description: The binding characteristics of the three NKp46 antibodies (10D10 antibody, 10E10 antibody, and 3B9 antibody) obtained in Example 1 were detected using the flow cytometry assay. Murine NKp46 antibodies were added to human peripheral blood mononuclear cells. The signal intensity after antibody addition was used to determine the binding characteristics of the antibody to PBMCs. The specific steps were as follows:
Human peripheral blood mononuclear cells (PBMCs) were diluted to 2×10⁶ cells/mL with PBS and added to a 1.5 mL EP tube at 100 μL/tube. Goat serum was added at […] and was blocked at 4° C. for 30 min. NKp46 antibodies at different concentrations gradients were added and incubated at 4° C. for 30 min. The EP tube was added with 1 mL of PBS, and centrifuged at 3500 rpm at 4° C. for 5 min. The supernatant was discarded and the pellet was washed once more with PBS. After centrifugation, the supernatant was discarded, and the cells were resuspended with 100 μL/tube of PBS, and 0.1 μL/tube of Alexa-647-labeled goat anti-mouse secondary antibody (Biolegend) and 0.5 μL/tube of FITC-labeled CD3 antibody were added, and incubated at 4° C. in the dark for 30 min. The pellet was washed twice with PBS and the supernatant was discarded after centrifugation. The cells were resuspended with 200 μL/tube of PBS and detected by flow cytometry.

[2] = target: T2, human NKp46-His fusion protein (human, UniProt O76036 22-258); test: ELISA, NKp46-His coated, anti-mouse HRP
T2 construct: Bought from Acro; also called NKp46 extracellular region His tag fusion protein; not shown: His tag
T2 sequence (O76036 22-258 Q82K): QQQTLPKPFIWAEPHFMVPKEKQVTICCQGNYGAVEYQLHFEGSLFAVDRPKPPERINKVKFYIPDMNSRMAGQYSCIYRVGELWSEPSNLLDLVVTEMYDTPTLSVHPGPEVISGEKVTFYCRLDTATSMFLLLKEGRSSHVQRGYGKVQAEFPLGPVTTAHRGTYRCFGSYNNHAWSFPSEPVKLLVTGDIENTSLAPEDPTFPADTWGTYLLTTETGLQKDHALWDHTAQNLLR
Text: (§1) The binding characteristics of the three NKp46 antibodies (10D10 antibody, 10E10 antibody, and 3B9 antibody) obtained in Example 1 were detected using the ELISA assay. The NKp46 extracellular region His tag fusion protein (NKp46-His) was coated into a 96-well plate. The signal intensity after antibody addition was used to determine the binding characteristics of the antibody to NKp46. The specific steps were as follows:
(§2) The human NKp46-His fusion protein (purchased from Acro) and cynomolgus monkey-His fusion protein (purchased from Acro) were diluted to 1 μg/mL with PBS buffer, added to a 96-well plate at 100 μL/well, and left overnight at 4° C. The PBS buffer solution was removed from the 96-well plate. The plate was washed 6 times with PBST (pH 7.2, PBS containing 0.1% Tween 20) buffer solution. PBS/10% BSA was added at 200 μL/well and incubated at 37° C. for 2 hours for blocking. The blocking solution was removed. The plate was washed 6 times with PBST. NKp46 antibody to be tested diluted to an appropriate concentration with PBST/0.05% BSA was added at 100 μL/well, and incubated for 1 h at 37° C. The reaction system was removed. The plate was washed 6 times with PBST. HRP (horseradish peroxidase)-labeled anti-mouse secondary antibody diluted with PBST/0.05% BSA was added at 100 μL/well and incubated for 1 h at 37° C. The plate was washed 6 times with PBST, and TMB (tetramethylbenzidine) was added at 80 μL/well. After 3 min of incubation at room temperature, 4M sulfuric acid was added at 80 μL/well to terminate the reaction. The absorbance at […] was read with a microplate reader.

[3] = target: T3, cynomolgus monkey-His fusion protein (cynomolgus monkey, UniProt Q95JB9 22-257); test: ELISA, NKp46-His coated, anti-mouse HRP
T3 construct: extracellular domain; also called cynomolgus monkey NKp46; monkey NKp46; not shown: His tag
T3 sequence (Q95JB9 22-257): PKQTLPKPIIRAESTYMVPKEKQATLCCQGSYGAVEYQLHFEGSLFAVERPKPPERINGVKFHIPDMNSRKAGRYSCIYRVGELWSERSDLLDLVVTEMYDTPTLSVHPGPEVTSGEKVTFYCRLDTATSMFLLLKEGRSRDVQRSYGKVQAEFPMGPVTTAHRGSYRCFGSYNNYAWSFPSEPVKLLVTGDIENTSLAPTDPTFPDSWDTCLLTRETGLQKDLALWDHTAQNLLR
Text: as §1, §2

[4] = target: T1, NKp46 on human peripheral blood …; test: flow cytometry on PBMCs
Description: (§3) The binding characteristics of the two human-murine chimeric NKp46 antibodies (i.e., human-murine chimeric 10D10 antibody and human-murine chimeric 3B9 antibody) prepared in Example 4 were detected using the flow cytometry assay. Human-murine chimeric NKp46 antibodies were added to human and cynomolgus monkey peripheral blood mononuclear cells. The signal intensity after antibody addition was used to determine the binding characteristics of the antibody to PBMCs. The specific steps were as follows:
(§4) Human and cynomolgus monkey peripheral blood mononuclear cells (PBMCs) were diluted to 2×10⁶ cells/mL with PBS and added to 1.5 mL EP tube at 100 μL/tube. Goat serum was added at 10 μL/tube and was blocked at 4° C. for 30 min. NKp46 antibodies at different concentrations gradients and the positive control antibody (hIgG1 LALA) were added and incubated at 4° C. for 30 min. The EP tube was added with 1 mL of PBS, and centrifuged at 3500 rpm at 4° C. for 5 min. The supernatant was discarded and the pellet was washed once more with PBS. After centrifugation, the supernatant was discarded, and the cells were resuspended with 100 IL/tube of PBS, and 0.1 μL/tube of Alexa-647 labeled rat anti-human IgG-Fc secondary antibody (Biolegend) and 0.5 μL/tube BV510-labeled CD16 antibody were added, and incubated at 4° C. in the dark for 30 min. The pellet was washed twice with PBS and the supernatant was discarded after centrifugation. The cells were resuspended with 200 μL/tube of PBS and detected by flow cytometry.

[5] = target: T4, NKp46 on cynomolgus monkey peripheral blood mononuclear cells (cynomolgus monkey, UniProt Q95JB9 22-306); test: flow cytometry on PBMCs
T4 construct: whole, on cells; also called cynomolgus monkey PBMCs
T4 sequence (Q95JB9 22-306): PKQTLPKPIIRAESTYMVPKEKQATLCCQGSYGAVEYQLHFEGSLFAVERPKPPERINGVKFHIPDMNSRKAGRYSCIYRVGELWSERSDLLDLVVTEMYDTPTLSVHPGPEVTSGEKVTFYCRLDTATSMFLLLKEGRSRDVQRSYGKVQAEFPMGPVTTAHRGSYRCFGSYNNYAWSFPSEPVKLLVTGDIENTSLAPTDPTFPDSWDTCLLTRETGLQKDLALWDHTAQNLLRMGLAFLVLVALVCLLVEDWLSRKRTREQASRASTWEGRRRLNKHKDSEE
Description: as §3, §4

[6] = target: T2, human NKp46-His fusion protein; test: ELISA, NKp46-His coated, anti-human HRP
[7] = target: T3, cynomolgus monkey-His fusion protein; test: ELISA, NKp46-His coated, anti-human HRP

Measured: binding result

T1 sequence (O76036 22-304 Q82K limits assumed): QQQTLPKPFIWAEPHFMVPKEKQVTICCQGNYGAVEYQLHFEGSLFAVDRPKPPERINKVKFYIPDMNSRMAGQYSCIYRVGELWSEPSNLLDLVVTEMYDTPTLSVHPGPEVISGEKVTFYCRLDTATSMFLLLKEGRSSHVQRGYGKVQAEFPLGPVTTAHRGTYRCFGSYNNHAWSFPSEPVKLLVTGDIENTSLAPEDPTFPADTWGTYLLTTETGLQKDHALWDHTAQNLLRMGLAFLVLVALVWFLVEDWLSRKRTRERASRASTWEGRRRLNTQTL

B1: murine 10E10 antibody (antibody, mouse IgG2a, kappa)
heavy: QVQLQQSGDDLVKPGASVKLSCKASGYTFTSYWINWIKQRPGQGLEWIGRVVPGSGRTYYNEIFKGKAILTVDSYSNTAYIQLRSVSSEDSAVYFCARVGGYWDYWGQGITLTVSSAKTTAPSVYPLAPVCGDTTGSSVTLGCLVKGYFPEPVTLTWNSGSLSSGVHTFPAVLQSDLYTLSSSVTVTSSTWPSQSITCNVAHPASSTKVDKKIEPRGPTIKPCPPCKCPAPNLLGGPSVFIFPPKIKDVLMISLSPIVTCVVVDVSEDDPDVQISWFVNNVEVHTAQTQTHREDYNSTLRVVSALPIQHQDWMSGKEFKCKVNNKDLPAPIERTISKPKGSVRAPQVYVLPPPEEEMTKKQVTLTCMVTDFMPEDIYVEWTNNGKTELNYKNTEPVLDSDGSYFMYSKLRVEKKNWVERNSYSCSVVHEGLHNHHTTKSFSRTPGK
light: QIVLSQSPAILSASPGEKVTMACRASSSVNYIHWYQQRPGSSPKPWIYATSSLASGVPARFSGSGSGTSYSLTISRVEAEDAATYYCQQWSSNPYTFGGGTKLEMKRADAAPTVSIFPPSSEQLTSGGASVVCFLNNFYPKDINVKWKIDGSERQNGVLNSWTDQDSKDSTYSMSSTLTLTKDEYERHNSYTCEATHKTSTSPIVKSFNRNEC
notes: Murine monoclonal antibody from a hybridoma
binds: [1] | [2] | [3]

B2: murine 3B9 antibody (antibody, mouse IgG2a, kappa)
heavy: EVKLVESGGGLVKPGGSLKLSCAPFGFTFSSYAMSWVRQTPEKRLEWVASISSGGITYYPDSVKGRFTISRDNVRNILNLQMSSLRSEDTAMYYCVRGFLTSYWGQGTLVTVSAAKTTAPSVYPLAPVCGDTTGSSVTLGCLVKGYFPEPVTLTWNSGSLSSGVHTFPAVLQSDLYTLSSSVTVTSSTWPSQSITCNVAHPASSTKVDKKIEPRGPTIKPCPPCKCPAPNLLGGPSVFIFPPKIKDVLMISLSPIVTCVVVDVSEDDPDVQISWFVNNVEVHTAQTQTHREDYNSTLRVVSALPIQHQDWMSGKEFKCKVNNKDLPAPIERTISKPKGSVRAPQVYVLPPPEEEMTKKQVTLTCMVTDFMPEDIYVEWTNNGKTELNYKNTEPVLDSDGSYFMYSKLRVEKKNWVERNSYSCSVVHEGLHNHHTTKSFSRTPGK
light: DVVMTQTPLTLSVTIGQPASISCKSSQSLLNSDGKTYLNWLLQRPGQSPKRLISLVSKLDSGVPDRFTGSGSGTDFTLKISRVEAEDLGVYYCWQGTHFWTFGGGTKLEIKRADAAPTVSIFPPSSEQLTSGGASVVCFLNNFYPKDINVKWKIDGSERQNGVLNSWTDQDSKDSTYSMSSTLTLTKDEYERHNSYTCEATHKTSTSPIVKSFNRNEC
notes: as for B1
binds: [1] | [2] | [3]

B3: human-murine chimeric 10D10 antibody (antibody, human IgG1, kappa, L234A L235A)
heavy: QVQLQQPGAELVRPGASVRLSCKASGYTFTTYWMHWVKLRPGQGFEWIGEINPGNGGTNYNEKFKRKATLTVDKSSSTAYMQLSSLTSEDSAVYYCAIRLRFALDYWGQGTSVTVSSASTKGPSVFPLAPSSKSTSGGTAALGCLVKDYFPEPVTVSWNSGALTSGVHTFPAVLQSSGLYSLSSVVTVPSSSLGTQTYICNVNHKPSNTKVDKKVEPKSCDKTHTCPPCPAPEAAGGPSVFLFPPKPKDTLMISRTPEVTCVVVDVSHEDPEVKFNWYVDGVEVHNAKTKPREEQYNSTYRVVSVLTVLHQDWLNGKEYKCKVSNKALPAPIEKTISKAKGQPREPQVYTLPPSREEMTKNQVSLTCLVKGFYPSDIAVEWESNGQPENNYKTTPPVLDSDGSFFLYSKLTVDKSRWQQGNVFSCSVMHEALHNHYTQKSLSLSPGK
light: DIQMTQTTSSLSASLGDRVTISCRASQDVRNFLNWFQQKPDGTVKLLIYFTSRLHSGVPSRFSGSGSGTDYSLTISNLEQEDIATYFCQQGNTLPPTFGGGTKLEIKRTVAAPSVFIFPPSDEQLKSGTASVVCLLNNFYPREAKVQWKVDNALQSGNSQESVTEQDSKDSTYSLSSTLTLSKADYEKHKVYACEVTHQGLSSPVTKSFNRGEC
notes: Human IgG1 LALA constant region, made in ExpiCHO-S cells; also called 10D10-hIgG1LALA
binds: [4] | [5] | [6] | [7]

B4: human-murine chimeric 3B9 antibody (antibody, human IgG1, kappa, L234A L235A)
heavy: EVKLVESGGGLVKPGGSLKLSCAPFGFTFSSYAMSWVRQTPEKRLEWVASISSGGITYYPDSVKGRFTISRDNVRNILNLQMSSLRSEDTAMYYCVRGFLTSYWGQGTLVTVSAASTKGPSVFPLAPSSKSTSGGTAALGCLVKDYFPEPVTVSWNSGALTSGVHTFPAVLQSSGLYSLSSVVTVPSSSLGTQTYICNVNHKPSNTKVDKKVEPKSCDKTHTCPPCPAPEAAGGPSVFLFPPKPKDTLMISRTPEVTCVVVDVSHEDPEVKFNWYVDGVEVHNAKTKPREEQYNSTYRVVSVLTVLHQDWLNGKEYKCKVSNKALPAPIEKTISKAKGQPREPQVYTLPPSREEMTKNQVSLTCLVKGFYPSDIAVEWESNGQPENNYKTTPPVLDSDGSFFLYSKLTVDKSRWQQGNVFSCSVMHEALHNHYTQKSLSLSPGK
light: DVVMTQTPLTLSVTIGQPASISCKSSQSLLNSDGKTYLNWLLQRPGQSPKRLISLVSKLDSGVPDRFTGSGSGTDFTLKISRVEAEDLGVYYCWQGTHFWTFGGGTKLEIKRTVAAPSVFIFPPSDEQLKSGTASVVCLLNNFYPREAKVQWKVDNALQSGNSQESVTEQDSKDSTYSLSSTLTLSKADYEKHKVYACEVTHQGLSSPVTKSFNRGEC
notes: Human IgG1 LALA constant region, made in ExpiCHO-S cells; also called 3B9-hIgG1LALA
binds: [4] | [5] | [6] | [7]

B5: humanized 10D10 antibody (antibody, human IgG1, kappa, L234A L235A, V domains shown)
VH: QVQLVQSGAEVKKPGASVKVSCKASGYTFTTYWMHWVKQAPGQGLEWIGEINPGNGGTNYNEKFKRRATMTVDKSISTAYMELSRLRSDDTAVYYCAIRLRFALDYWGQGTLVTVSS
VL: DIQMTQSPSSLSASVGDRVTITCRASQDVRNFLNWFQQKPGKAPKLLIYFTSRLHSGVPSRFSGSGSGTDYTFTISSLQPEDIATYFCQQGNTLPPTFGGGTKLEIKR
notes: human IgG1 LALA; also called h10D10-hIgG1LALA; humanized NKp46 antibody
binds: [6] | [7]

B6: human-murine chimeric 10E10 antibody (antibody, human IgG1, kappa, L234A L235A)
heavy: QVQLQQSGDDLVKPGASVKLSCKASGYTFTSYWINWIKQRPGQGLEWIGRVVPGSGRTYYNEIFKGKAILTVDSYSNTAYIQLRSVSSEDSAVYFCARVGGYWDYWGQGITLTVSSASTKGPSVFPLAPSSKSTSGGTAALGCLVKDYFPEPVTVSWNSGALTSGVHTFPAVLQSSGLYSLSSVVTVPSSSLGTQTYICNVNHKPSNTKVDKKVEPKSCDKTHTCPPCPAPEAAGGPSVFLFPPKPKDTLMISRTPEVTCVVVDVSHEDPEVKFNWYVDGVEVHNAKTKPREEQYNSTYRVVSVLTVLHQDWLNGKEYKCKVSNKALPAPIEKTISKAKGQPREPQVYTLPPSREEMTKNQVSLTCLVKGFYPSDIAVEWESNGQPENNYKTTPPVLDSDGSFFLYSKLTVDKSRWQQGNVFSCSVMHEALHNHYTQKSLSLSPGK
light: QIVLSQSPAILSASPGEKVTMACRASSSVNYIHWYQQRPGSSPKPWIYATSSLASGVPARFSGSGSGTSYSLTISRVEAEDAATYYCQQWSSNPYTFGGGTKLEMKRTVAAPSVFIFPPSDEQLKSGTASVVCLLNNFYPREAKVQWKVDNALQSGNSQESVTEQDSKDSTYSLSSTLTLSKADYEKHKVYACEVTHQGLSSPVTKSFNRGEC
notes: Human IgG1 LALA constant region, made in ExpiCHO-S cells; also called 10E10-hIgG1LALA
binds: [6] | [7]

B7: murine 10D10 antibody (antibody, mouse IgG2a, kappa)
heavy: QVQLQQPGAELVRPGASVRLSCKASGYTFTTYWMHWVKLRPGQGFEWIGEINPGNGGTNYNEKFKRKATLTVDKSSSTAYMQLSSLTSEDSAVYYCAIRLRFALDYWGQGTSVTVSSAKTTAPSVYPLAPVCGDTTGSSVTLGCLVKGYFPEPVTLTWNSGSLSSGVHTFPAVLQSDLYTLSSSVTVTSSTWPSQSITCNVAHPASSTKVDKKIEPRGPTIKPCPPCKCPAPNLLGGPSVFIFPPKIKDVLMISLSPIVTCVVVDVSEDDPDVQISWFVNNVEVHTAQTQTHREDYNSTLRVVSALPIQHQDWMSGKEFKCKVNNKDLPAPIERTISKPKGSVRAPQVYVLPPPEEEMTKKQVTLTCMVTDFMPEDIYVEWTNNGKTELNYKNTEPVLDSDGSYFMYSKLRVEKKNWVERNSYSCSVVHEGLHNHHTTKSFSRTPGK
light: DIQMTQTTSSLSASLGDRVTISCRASQDVRNFLNWFQQKPDGTVKLLIYFTSRLHSGVPSRFSGSGSGTDYSLTISNLEQEDIATYFCQQGNTLPPTFGGGTKLEIKRADAAPTVSIFPPSSEQLTSGGASVVCFLNNFYPKDINVKWKIDGSERQNGVLNSWTDQDSKDSTYSMSSTLTLTKDEYERHNSYTCEATHKTSTSPIVKSFNRNEC
notes: as for B1
binds: [1] | [2] | [3]
